Data reported in patent US7205273B2, “Fusogenic liposomes” (The University of British Columbia, priority 1996, dated 2007).

Columns and labels:
[1] = 31P-NMR phase behaviour of equimolar DOPE:cholesterol mixtures with bilayer stabilizing component; type: physicochemical; settings: DOPE:cholesterol:BSC 1:1:0.25, 0 to 60° C.
Procedure: Lipid components were mixed in 1–2 ml of benzene:methanol (95:5, v/v) and then lyophilized for a minimum of 5 hours at a pressure of <60 millitorr using a Virtis lyophilizer equipped with a liquid N2 trap. Multilamellar vesicles (MLVs) were prepared by hydrating the dry lipid mixtures in 150 mM NaCl, buffered with 10 mM Hepes-NaOH, pH 7.4 (Hepes-buffered saline, HBS). Mixtures were vortexed to assist hydration. To produce large unilamellar vesicles (LUVs), MLVs were first frozen in liquid nitrogen and then thawed at 30° C. five times. LUVs were produced by extrusion of the frozen and thawed MLVs ten times through 2 stacked polycarbonate filters of 100 nm pore size at 30° C. and pressures of 200–500 psi (Hope, et al., Biochim. Biophys. Acta, 812:55–65 (1985)).
^31P-NMR spectra were obtained using a temperature controlled Bruker MSL200 spectrometer operating at 81 MHz. Free induction decays were accumulated for 2000 transients using a 4 μs, 90° pulse, 1 sec. interpulse delay, 20 KHz sweep width and Waltz decoupling. A 50 Hz line broadening was applied to the data prior to Fourier transformation. Samples were allowed to equilibrate at the indicated temperature for 30 minutes prior to data accumulation. Lipid concentrations of 30–70 mM were used.

[2] = Lipid mixing (FRET) assay, NaCl-induced fusion of DOPE:DODAC liposomes; settings: DOPE:DODAC:PEG-lipid 83:15:2, 300 mM NaCl, POPC sink, 37° C.
Procedure: FIG. 16 illustrates the inhibition of fusion of DOPE:DODAC liposomes by PEG-PE. Liposomes were prepared from either DOPE:DODAC (85:15) or DOPE:DODAC:DMPE-PEG2000 (83:15:2). Fusion was assayed as described under FIG. 1 using 300 mM NaCl.
FIG. 17 illustrates the recovery fusogenic activity after PEG removal. Liposomes were prepared from either DOPE:DODAC:ceramide(C8:0)-PEG2000, 83:15:2 or […], 38:45:15:2. Fusion was assayed as described under FIG. 2 except that at the indicated times a 30 fold excess (over donors) of liposomes composed of POPC or POPC:cholesterol (55:45) was added.
FIG. 18 illustrates the effect of the lipid anchor on the rate of PEG-lipid removal. […] At zero time a 13-fold excess (over labelled vesicles) of POPC liposomes was added and the fluorescence intensity was measured at the indicated times. At the end of the assay Triton X-100 (0.5% final) was added to eliminate energy transfer and the % fusion was calculated from the change in efficiency of energy transfer. Maximum fusion was calculated from a standard curve of energy transfer efficiency against the molar fraction of Rh-PE in the membrane assuming complete mixing of labelled and unlabelled liposomes.
Lipid mixing was measured by a modification of the fluorescence resonance energy transfer (FRET) assay of Struck, et al. (Biochemistry, 20:4093–4099 (1981)). […]

1-O-methyl-(poly(ethoxy)-O-succinyl-O-(egg)ceramide [egg ceramide-PEG2000]
phase preference by 31P-NMR [1]: exclusively bilayer up to 60 °C
time for 50% maximal fusion [2]: over 20 hr
